Results on two molecules are retold here after patent US20100292147A1 (UNIVERSITY OF UTAH RESEARCH FOUNDATION, published 2010).

No end group written: not given here.

Experiment [1] deals with T1, HBD wt peptide (hepcidin binding domain of ferroportin with two arginines at each end).
T1 construct: Synthetic peptide; also called I-HBD (when immobilized on agarose beads or 96-well plates); HBD-beads
T1 peptide: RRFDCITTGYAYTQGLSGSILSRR
As to the kind of experiment: binding to HBD, data not shown.

The target in experiment [2] is T1, HBD wt peptide (hepcidin binding domain …). As to the kind of experiment: competition with sub saturating ^125I-hepcidin (0.6 ug/ml) for bead-immobilized HBD (I-HBD), 18 h at 37 C, gamma counting (FIG. 2B). The procedure: FIGS. 2A-C illustrates that the binding of ¹²⁵I-hepcidin to HBD is specific and temperature dependent. In FIG. 2A peptides (HBD, scrambled-HBD or mutant (C326Y HBD) were conjugated to beads and ¹²⁵I-hepcidin was added to the bead-immobilized peptides (I-HBD) for 18 hours at 37° C. (black bars) or 4° C. (grey bars). The beads were washed and the amount of ¹²⁵I-hepcidin bound to the I-HBD was determined. In FIG. 2B a sub saturating concentration of ¹²⁵I-hepcidin (0.6 μg/ml) was incubated with I-HBD for 18 hours at 37° C. in the presence or absence of known concentrations of either hepcidin 25 (Hep 25-open circles) or hepcidin 25 synthesized with a tyrosine substitution at position M21 (Y-Hep 25) and the amount of radioactivity bound to the I-HBD determined. In FIG. 2C sub saturating levels of ¹²⁵I-hepcidin were incubated with I-HBD at different temperatures.
HBD peptides were immobilized by covalently attaching them to agarose beads. Immobilization was performed using AminoLink Plus Immobilization Kit (Pierce) following the manufacturer's instructions. 1.0 mg of HBD peptide was used per 2.0 ml of AminoLink beads. To measure hepcidin concentrations in biological fluids, samples were mixed with a defined concentration of ¹²⁵I-hepcidin and then added to HBD conjugated beads. […] The fluid was removed and the radioactivity bound to beads was determined by gamma counting (Perkin/Elmer).

B1: Hep20 (hepcidin 20, hepcidin lacking the five amino terminal amino acids) (peptide)
peptide: ICIFCCGCCHRSKCGMCCKT
modifications: ends and bridges not checked; also: native intramolecular disulfides, pairing not given here
In the case of B1, the binding result in experiment [1] is “no binding”.

B2: hepcidin (hepcidin 25, native non-radioactive hepcidin) (peptide, UniProt P81172 60-84, looked up)
peptide: DTHFPICIFCCGCCHRSKCGMCCKT
modifications: ends and bridges not checked; also: native intramolecular disulfides, pairing not given here
notes: mature; Synthetic peptide; also called Hep 25; Hep25
Consider B2, for which, in experiment [2], the “apparent K” value is ~200 nM.
